The values below come from PMC9330781.

The experiment addresses Recombinant blood coagulation factor VIII (human). Particulars: scale: times higher molar excess over FVIII.

B1: Thrombin-cleaved iKM33-v2 (mixture of dissociated VH and VL) (protein)
VH: EVQLVESGGGVVQPGRSLRLSCVDSGLTFSSYGMHWVRQAPGAGLEWVAVISYDGNDKYYADSVKGRFAISRDNAKNTLYLQMNSLTIEDTAVYYCAKDLIESNIAEAFWGQGTLVTVSS
VL: DIQMTQSPSSLSASVGDTVTIACRASRDIRNDLAWYQQKPGKAPKLLIYATSRLQSGVPSRFSGSGSFTDFTLTINSLQPDDSATYYCLQDSDYPLTFGGGTKVDIK
For the molecule B1, the FVIII activity in the chromogenic substrate (CS) assay; thrombin-cleaved scFv 1000 to 0.24 nM with 145 pM FVIII; molar excess needed for the same inhibition as the non-cleaved scFv turned out to be 100.
